Among the data in US20210070872A1 (AGENUS, published 2021) are Kd, koff and kon values, retold here.

Test [1] has as its target T1, biotinylated GITR (human, UniProt Q9Y5U5 26-161, limits assumed, biotinylated (sites not given)).
T1 construct: also called GITR-bio; Biotin-GITR
T1 sequence: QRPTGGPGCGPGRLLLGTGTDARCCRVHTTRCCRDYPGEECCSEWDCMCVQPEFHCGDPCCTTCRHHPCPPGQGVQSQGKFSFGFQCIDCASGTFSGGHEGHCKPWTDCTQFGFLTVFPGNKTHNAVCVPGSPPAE
The experiment in a line: BLI (Octet), biotin-GITR on streptavidin tips, antibody supernatant. On the procedure:
Several hundred germlined antibodies were selected based on binding kinetics as determined by Octet measurements (Octet RED 96 system; ForteBio™ Inc., Menlo Park, Calif.). The experimental procedure was configured according to the instruction manual of the instrument. Biotin-GITR was bound to Streptavidin biosensor (SA) and PBS (pH 7.4) was used as a blank control. Briefly, the interaction analyses were conducted at 30° C. in running buffer (PBS, 0.05% Tween, pH7.4). Sensor tips were pre-wet for 10 minutes in running buffer immediately prior to use, and the micro plates used in the Octet were filled with 200 μl of sample or buffer per well and agitated at 800 rpm. For the experiments, commercially available precoated SA tips were used. Biotinylated GITR was loaded onto the ForteBio SA fibers in PBS pH7.4 for 10 minutes and washed for 4 minutes. For the association phase, the ligand-coated SA tips were immersed for 5 minutes in cell culture supernatant that was diluted 1:10 in running buffer prior to the measurement. Dissociation of the antibody-antigen complex was measured in wells containing the Octet buffer alone for 5 minutes. After each run, the tips were regenerated with Glycine (10 mM, pH 2.0). Affinity, Kₒₙ and Koff were determined with Octet evaluation software v6.3 using a 1:1 binding model with local full fitting.
(In general: In BLI a coated tip is dipped into the sample, and binding shifts an interference pattern.)

The target of test [2] is T2, GITR antigen (R&D systems, di-sulfide-linked homodimer; 689-GR) (human, UniProt Q9Y5U5 26-161).
T2 construct: Bought
T2 sequence: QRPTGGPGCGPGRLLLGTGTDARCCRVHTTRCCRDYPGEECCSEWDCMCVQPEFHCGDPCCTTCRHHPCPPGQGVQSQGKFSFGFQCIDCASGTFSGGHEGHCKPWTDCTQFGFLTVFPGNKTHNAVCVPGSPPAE
The experiment in a line: SPR (BIAcore T100/T200), antibody captured via anti-human Fab, GITR antigen 40/10/2.5 nM, 1:1 model. On the procedure:
All interactions were analyzed at 25° C. using 1× DPBS (PAA, H15-002) plus P20 (0.05%, Pierce, 28320) as running buffer. Anti-GITR antibodies (8 μg/ml in running buffer) were captured to the chip surface of a CM5 sensor chip (GE Healthcare, Series S CM5, BR-1005-30) via an immobilized anti-human Fab antibody (GE Healthcare, Fab Capture Kit, 28958325). To detect unspecific interactions of the GITR antigen, antibody capture was only performed in flow cell 2, whereas in flow cell 1 only the capturing antibody was immobilized. In addition, an unrelated antibody (anti-IL-1β; SK48E26; International Publication No. WO 95/001997) was used to assess specificity of GITR binding. After capture of the anti-GITR antibodies GITR antigen (R&D systems, di-sulfide-linked homodimer; 689-GR) was run through both flow cells in different amounts (40 nM, 10 nM and 2.5 nM) for each antibody. Also a blank curve (running buffer only) was included in each run. Association was run for 90 s and dissociation for 600 s with a flow rate of 10 μl/min. After each run a regeneration step was performed with 10 mM Glycine pH2.0 (GE Healthcare, BR-1003-55) for 60 s with 30 μl/min. Binding curves were evaluated using BIAcore® T200 evaluation software version 2.0.1 applying a Langmuir 1:1 model with global fit of Rmax.
In general terms: Surface plasmon resonance follows binding to a sensor surface in real time, without labels.

As usually defined, the Kd is the constant that tells how readily two partners part at equilibrium. A high value points to weaker binding. The term koff denotes the first-order rate constant of dissociation. Broadly, the kon is a measure of how fast the partners come together. A low value points to slower complex formation.

B1: germline variant antibody 37 (H1916D07 / K1916D07) (antibody, V domains shown)
VH: QVQLVQSGTEVKKPGASVKVSCKGSGYTFTEYAMYWVRQAPGQGMEWIGLIRTFSGEVTYNQKFKDRVTMTVDTSISTAYMELSRLRSDDTAVYYCAKSGTVRGFAYWGQGTLVTVSS
VL: DIVMTQSPDSLAVSLGERATINCKSSQSLLNSGNQKNYLTWYQQKPGQPPKLLIYWASTRESGVPDRFTGSGSGTDFTLTISSLQAEDVAVYHCQNEYSYPYTFGQGTKLEIK
notes: IGHG1/IGKC expression vectors; measured from CHO culture supernatant; also called Antibody ID 37
Turning to B1, in test [1], the Kd came out at 0.0317 nM, the koff turned out to be 0.000242 s⁻¹ and the kon was 7.64e+06 M⁻¹ s⁻¹.

B2: germline variant antibody 21 (H1916C03 / K1916C03) (antibody, V domains shown)
VH: QVQLVQSGTEVKKPGASVKVSCKGSGYTFTGYVMHWVRQAPGQGMEWIGVIRTFSGDVSYNQKFRERVTMTVDTSISTAYMELSRLRSDDTAVYYCAKSGTVRGFAYWGQGTLVTVSS
VL: DIVMTQSPDSLAVSLGERATINCKSSQSLLNSGNQKNYLTWYHQKPGQPPKLLIYWASTRESGVPDRFSGSGSGTDFTLTISSVQAEDVAVYHCQNDYSYPYTFGQGTKLEIK
notes: IGHG1/IGKC expression vectors; measured from CHO culture supernatant; also called Antibody ID 21
In the case of B2, in test [1], the Kd came to 8.44 nM, the koff came out at 0.00261 s⁻¹ and the kon came out at 309000 M⁻¹ s⁻¹.

B3: germline variant antibody 18 (H1916B09 / K1916B09) (antibody, V domains shown)
VH: QVQLVQSGTEVKKPGASVKVSCKASGYTFTGYAMYWVRQAPGQGMEWIGLIRTFSGEVTYNQKFRGRVTMTVDTSISTAYMELSRLRSDDTAVYYCAKSGTVRGFAYWGQGTLVTVSS
VL: DIVMTQSPDSLAVSLGERATINCKSSQSLLNSSNQKNYLTWYHQKPGQPPKMLIYWASTRESGVPDRFTGSGSGTDFTLTISSVQAEDVAVYYCQNDYSYPYTFGQGTKLEIK
notes: IGHG1/IGKC expression vectors; measured from CHO culture supernatant; also called Antibody ID 18
Turning to B3, in test [1], the Kd turned out to be 3.77 nM, the koff is 0.000824 s⁻¹ and the kon is 219000 M⁻¹ s⁻¹.

B4: germline variant antibody 97 (H1917G07 / K1917G07) (antibody, V domains shown)
VH: QVQLVQSGTEVKKPGASVKVSCKGSGYTFTEYAMHWVRQAPGQGMEWIGLIRTFSGGLSYNQKFRDRVTMTVDKSISTAYMELSRLRSDDTAVYYCAKSGTVRGFAYWGQGTLVTVSS
VL: DIVMTQSPDSLAVSLGERATINCKSSQSLLNSGNQKNYLTWYHQKPGQPPKLLIYWASTRESGVPDRFTGSGSGTDFTLTISSVQAEDVAVYHCQNEYSFPYTFGQGTKLEIK
notes: IGHG1/IGKC expression vectors; measured from CHO culture supernatant; also called Antibody ID 97
B4: in test [1], binding was characterised by a dissociation constant (Kd) of 1.43 nM, the koff was found to be 0.000761 s⁻¹ and the kon stood at 534000 M⁻¹ s⁻¹.

B5: germline variant antibody 42 (H1916E01 / K1916E01) (antibody, V domains shown)
VH: QVQLVQSGTEVKKPGASVKVSCKASGYTFTDYAMYWVRQAPGQGLEWIGVIRTFSGDLTYNQKFQDRVTMTVDTSISTAYMELSRLRSDDTAVYYCAKSGTVRGFAYWGQGTLVTVSS
VL: DIVMTQSPDSLAVSLGERATINCKSSQSLLNSGNQKNYLSWYQQKPGQPPKLLIYWASTRESGVPDRFSGSGSGTDFTLTISSLQAEDVAVYYCQNDYSYPYTFGQGTKLEIK
notes: IGHG1/IGKC expression vectors; measured from CHO culture supernatant; also called Antibody ID 42
In test [1], B5 gave a Kd of 0.377 nM, a koff of 0.000157 s⁻¹ and a kon of 417000 M⁻¹ s⁻¹.

B6: germline variant antibody 70 (H1917B04 / K1917B04) (antibody, V domains shown)
VH: QVQLVQSGTEVKKPGASVKVSCKASGYTFTGYAMYWVRQAPGQGMEWIGVIRTYSGDVTYNQKFKDRATMTVDTSISTAYMELSRLRSDDTAVYYCAKSGTVRGFAYWGQGTLVTVSS
VL: DIVMTQSPDSLAVSLGERATINCKSSQSLLNSGNQKNYLSWYQQKPGQPPKLLIYWASTRESGVPDRFSGSGSGTDFTLTISSLQAEDVAVYHCQNDYSFPYTFGQGTKLEIK
notes: IGHG1/IGKC expression vectors; measured from CHO culture supernatant; also called Antibody ID 70
In test [1], B6 gave a Kd of 2.01 nM, a koff of 0.000879 s⁻¹ and a kon of 437000 M⁻¹ s⁻¹.

B7: Hum231#1 (antibody, V domains shown)
VH: QVQLVQSGAEVKKPGASVKVSCKGSGYTFTDYAMYWVRQAPGQGLEWIGVIRTYSGDVTYNQKFKDRATMTVDKSISTAYMELSRLRSDDTAVYYCAKSGTVRGFAYWGQGTLVTVSS
VL: DIVMTQSPPTLSLSPGERVTLSCKSSQSLLNSGNQKNYLTWYQQKPGQAPRLLIYWASTRESGIPARFSGSGSGTDFTLTISSLQPEDFAVYHCQNDYSYPYTFGQGTKLEIK
notes: Variable regions cloned with IGHG1 (also IGHG4 and Fab vectors exist) and IGKC constant regions; format in each assay not always stated; also called humanized variant Hum231#1 (IGHV1-2*02 and IGK3-7*02)
Regarding B7, in test [2], the affinity, expressed as Kd, was 0.702 nM; the koff was determined as 0.00249 s⁻¹; the kon came to 3.55e+06 M⁻¹ s⁻¹.

B8: germline variant antibody 20 (H1916B12 / K1916B12) (antibody, V domains shown)
VH: QVQLVQSGTEVKKPGASVKVSCKASGYTFTDYAMYWVRQAPGQGLEWIGVIRTFSGDLSYNQKFRGRVTMTVDTSISTAYMELSRLRSDDTAVYYCAKSGTVRGFAYWGQGTLVTVSS
VL: DIVMTQSPDSLAVSLGERATINCKSSQSLLNSGNQKNYLTWYQQKPGQPPKMLLYWASTRESGVPDRFTGSGSGTDFTLTISSVQAEDVAVYHCQNDYSYPYTFGQGTKLEIK
notes: IGHG1/IGKC expression vectors; measured from CHO culture supernatant; also called Antibody ID 20
B8: in test [1], the Kd worked out at 1.35 nM, the koff was determined as 0.00038 s⁻¹ and the kon stood at 283000 M⁻¹ s⁻¹.

B9: germline variant antibody 78 (H1917D01 / K1917D01) (antibody, V domains shown)
VH: QVQLVQSGAEVKKPGASVKVSCKGSGYTFTDYAMYWVRQAPGQGLEWIGVIKTYSGGVTYNQKFRDRATMTVDTSISTAYMELSRLRGDDTAVYYCAKSGTVRGFAYWGRGTLVTVSS
VL: DIVMTQSPDSLAVSLGERATINCKSSQSLLNSGNQKNYLTWYHQKPGQPPKMLIYWASTRESGVPDRFTGSGSGTDFTLTISSVQAEDVAVYHCQNDYSYPYTFGQGTKLEIK
notes: IGHG1/IGKC expression vectors; measured from CHO culture supernatant; also called Antibody ID 78
For B9, in test [1], the Kd turned out to be 1 nM, the koff was found to be 0.000327 s⁻¹ and the kon stood at 325000 M⁻¹ s⁻¹.

B10: germline variant antibody 5 (H1916A06 / K1916A06) (antibody, V domains shown)
VH: QVQLVQSGAEVKKPGASVKVSCKGSGYTFTEYAMHWVRQAPGQGLEWMGLIRTYSGGVTYNQKFRGRVTMTVDTSISTAYMELSRLRSDDTAVYYCAKSGTVRGFAYWGQGTLVTVSS
VL: DIVMTQSPDSLAAPGERATINCKSSQSLLNSSNQKNYLTWYHQKPGQPPKLLIYWASTRESGVPDRFTGSGSGTDFTLTISSVQAEDVAVYYCQNEYSFPYTFGQGTKLEIK
notes: IGHG1/IGKC expression vectors; measured from CHO culture supernatant; also called Antibody ID 5
For B10, in test [1], the affinity, expressed as Kd, was 1.63 nM; the koff amounted to 0.000966 s⁻¹; the kon came to 591000 M⁻¹ s⁻¹.

B11: germline variant antibody 49 (H1916E11 / K1916E11) (antibody, V domains shown)
VH: QVQLVQSGTEVKKPGASVKVSCKGSGYTFTGYAMYWVRQAPGQGLEWMGVIRTYSGDVTYNQKFRERATMTVDTSISTAYMELSRLRSDDTAVYYCAKSGTVRGFAYWGQGTLVTVSS
VL: DIVMTQSPDSLAVSLGERATINCKSSQSLLNSGNQKNYLTWYHQKPGQPPKLLIYWASTRESGVPDRFSGSGSGTDFTLTISSVQAEDVAVYHCQNDYSFPYTFGQGTKLEIK
notes: IGHG1/IGKC expression vectors; measured from CHO culture supernatant; also called Antibody ID 49
In test [1], B11 returned a Kd of 2.09 nM, a koff of 0.000707 s⁻¹ and a kon of 338000 M⁻¹ s⁻¹.
